Experimental findings from EP0938497B1 are described below.

In the assay the target is IgG. Nature of the assay: microcalorimetry and surface plasmon resonance. (In general: Surface plasmon resonance follows binding to a sensor surface in real time, without labels.)

As usually defined, the Kd is the concentration at which binding is half-saturated. Substance “locked helix peptide FNM(5)QQRRFY(6)ALH, cyclized (Fig. 11)” gave a Kd of 100 µM.
